The results in this text go back to publication PMC3904923 (2014).

The target of assay [1] is T1, dansylated calmodulin (rat, UniProt P0DP30 1-149, dansyl group covalently bound to CaM (position not given)). The assay can be described thus: absence of Ca2+.
The target of assay [2] is T1, dansylated calmodulin. The assay can be described thus: 3.9 uM Ca2+ (poor 1:1 fit, Bmax constrained).

B1: Kv7.2 CaM binding domain (residues 310–548), Q2AB WT (domain or fragment)
chain: not shown
On to B1, for which the figures for the Kd with dansylated calmodulin [1] and in the assay with dansylated calmodulin [2] were 4.8 nM and 21.4 nM, respectively.
